US20230257470A1 (published 2023)
Changes are numbered by the printed parent chain. Values belong to the binder of their own block, whether it stands above or below them.

Legend:
Experiment in all cases: SPR (Biacore), FcγR over captured antibody; binding amount divided by that of IL6R-BF648/IL6R-L x 100
[1] = target: T1, human FcγRIa (human, UniProt P12314 16-292, limits assumed)
T1 construct: also called FcgRIa; FcγRI (CD64)
Description: (§1) According to the following method, relative binding activities were calculated for the results of analyzing interactions with the respective FcγRs.

[2] = target: T2, human FcγRIIa type R (human, UniProt P12318 36-217)
T2 construct: also called FcgRIIaR; FcγRIIa(R)
T2 chain: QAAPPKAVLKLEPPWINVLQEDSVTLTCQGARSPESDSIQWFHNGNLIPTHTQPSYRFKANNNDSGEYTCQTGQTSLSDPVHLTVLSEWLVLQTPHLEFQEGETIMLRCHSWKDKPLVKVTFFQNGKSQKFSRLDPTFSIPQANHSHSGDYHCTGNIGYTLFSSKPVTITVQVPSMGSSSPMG
Description: as §1

[3] = target: T3, human FcγRIIa type H (human, UniProt P12318 36-217)
T3 construct: also called FcgRIIaH; FcγRIIa(H)
T3 sequence: T2 chain with R133H
Description: as §1

[4] = target: T4, human FcγRIIIa type V (human, UniProt P08637 17-208, limits assumed)
T4 construct: also called FcgRIIIaV; FcγRIIIa(V)
T4 sequence (P08637 other isoform, or with tags, fused parts or gaps limits assumed): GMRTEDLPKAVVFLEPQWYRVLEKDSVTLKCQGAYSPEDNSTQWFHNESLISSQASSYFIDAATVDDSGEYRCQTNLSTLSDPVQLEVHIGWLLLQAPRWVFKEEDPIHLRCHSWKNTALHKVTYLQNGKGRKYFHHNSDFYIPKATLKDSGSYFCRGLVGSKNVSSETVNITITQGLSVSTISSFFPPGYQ
Description: as §1

[5] = target: T5, human FcγRIIb (human, UniProt P31994 43-217, limits assumed)
T5 construct: also called FcgRIIb; FcγIIB
T5 sequence: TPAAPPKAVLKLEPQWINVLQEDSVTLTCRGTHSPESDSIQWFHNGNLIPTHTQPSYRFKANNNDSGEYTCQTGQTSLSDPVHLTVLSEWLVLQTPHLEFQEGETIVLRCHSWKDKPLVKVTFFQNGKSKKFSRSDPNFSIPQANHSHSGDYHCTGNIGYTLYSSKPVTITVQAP
Description: as §1

T1 sequence (P12314 16-292 limits assumed): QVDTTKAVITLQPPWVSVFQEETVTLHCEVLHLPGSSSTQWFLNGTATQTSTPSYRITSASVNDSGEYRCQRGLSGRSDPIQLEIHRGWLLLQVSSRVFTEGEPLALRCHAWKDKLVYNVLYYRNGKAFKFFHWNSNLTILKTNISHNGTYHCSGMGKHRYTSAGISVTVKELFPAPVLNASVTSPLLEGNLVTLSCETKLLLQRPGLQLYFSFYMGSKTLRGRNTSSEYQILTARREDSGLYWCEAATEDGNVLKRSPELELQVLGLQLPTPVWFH

B2: IL6R-BP131/IL6R-L (antibody, human IgG1, name in EU numbering)
heavy: QVQLQESGPGLVKPSETLSLTCAVSGHSISHDHAWSWVRQPPGEGLEWIGFISYSGITNYNPSLQGRVTISRDNSKNTLYLQMNSLRAEDTAVYYCARSLARTTAMDYWGEGTLVTVSSASTKGPSVFPLAPSSKSTSGGTAALGCLVKDYFPEPVTVSWNSGALTSGVHTFPAVLQSSGLYSLSSVVTVPSSSLGTQTYICNVNHKPSNTKVDKKVEPKSCDKTHTCPPCPAPDLLGDDSVFLFPPKPKDTLMISRTPEVTCVVVDVSHEDPEVKFNWYVDGVEVHNAKTKPREEQYNSTYRVVSVLTVLHQDWLNGKEYKCKVSNKALPKPIEKTISKAKGQPREPQVYTLPPSRDELTKNQVSLTCLVKGFYPSDIAVEWESNGQPENNYKTTPPVLDSDGSFFLYSKLTVDKSRWQQGNVFSCSVMHEALHNHYTQESLSLSP
light: DIQMTQSPSSLSASVGDRVTITCRASQDISSYLNWYQQKPGKAPKLLIYYTSRLHSGVPSRFSGSGSGTDFTFTISSLQPEDIATYYCQQGNTLPYTFGQGTKVEIK
notes: copies: 2 + 2
- relative binding activity [1]: 33 relative (IL6R-BF648/IL6R-L = 100)
- relative binding activity [2]: 364 relative (IL6R-BF648/IL6R-L = 100)
- relative binding activity [3]: 253 relative (IL6R-BF648/IL6R-L = 100)
- relative binding activity [4]: 118 relative (IL6R-BF648/IL6R-L = 100)

B4: IL6R-BP089/IL6R-L (antibody, human IgG1, name in EU numbering)
heavy: B2 heavy with D235E, L236Y, D239G, K328A
light: B2 light
notes: copies: 2 + 2
- relative binding activity [1]: 43 relative (IL6R-BF648/IL6R-L = 100)
- relative binding activity [2]: 222 relative (IL6R-BF648/IL6R-L = 100)
- relative binding activity [3]: 186 relative (IL6R-BF648/IL6R-L = 100)
- relative binding activity [5]: 147 relative (IL6R-BF648/IL6R-L = 100)
- relative binding activity [4]: 136 relative (IL6R-BF648/IL6R-L = 100)

B7: IL6R-BP084/IL6R-L (antibody, human IgG1, name in EU numbering)
heavy: B2 heavy with D235E, D239G, V325M
light: B2 light
notes: copies: 2 + 2
- relative binding activity [1]: 109 relative (IL6R-BF648/IL6R-L = 100)
- relative binding activity [2]: 203 relative (IL6R-BF648/IL6R-L = 100)
- relative binding activity [3]: 162 relative (IL6R-BF648/IL6R-L = 100)
- relative binding activity [5]: 141 relative (IL6R-BF648/IL6R-L = 100)
- relative binding activity [4]: 106 relative (IL6R-BF648/IL6R-L = 100)

B8: IL6R-BP086/IL6R-L (antibody, human IgG1, name in EU numbering)
heavy: B2 heavy with D235E, D239G, K328A
light: B2 light
notes: copies: 2 + 2
- relative binding activity [1]: 72 relative (IL6R-BF648/IL6R-L = 100)
- relative binding activity [2]: 155 relative (IL6R-BF648/IL6R-L = 100)
- relative binding activity [3]: 116 relative (IL6R-BF648/IL6R-L = 100)
- relative binding activity [5]: 137 relative (IL6R-BF648/IL6R-L = 100)
- relative binding activity [4]: 123 relative (IL6R-BF648/IL6R-L = 100)

B9: IL6R-2B253/IL6R-L (antibody, human IgG1, name in EU numbering)
heavy: B2 heavy with D239G, V325M, K332A
light: B2 light
notes: copies: 2 + 2
- relative binding activity [1]: 155 relative (IL6R-BF648/IL6R-L = 100)
- relative binding activity [2]: 288 relative (IL6R-BF648/IL6R-L = 100)
- relative binding activity [3]: 207 relative (IL6R-BF648/IL6R-L = 100)
- relative binding activity [5]: 156 relative (IL6R-BF648/IL6R-L = 100)
- relative binding activity [4]: 126 relative (IL6R-BF648/IL6R-L = 100)

B10: IL6R-BP087/IL6R-L (antibody, human IgG1, name in EU numbering)
heavy: B2 heavy with D235E, L236Y, D239G
light: B2 light
notes: copies: 2 + 2
- relative binding activity [1]: 33 relative (IL6R-BF648/IL6R-L = 100)
- relative binding activity [2]: 163 relative (IL6R-BF648/IL6R-L = 100)
- relative binding activity [3]: 179 relative (IL6R-BF648/IL6R-L = 100)
- relative binding activity [5]: 137 relative (IL6R-BF648/IL6R-L = 100)
- relative binding activity [4]: 158 relative (IL6R-BF648/IL6R-L = 100)

B11: IL6R-BP130/IL6R-L (antibody, human IgG1, name in EU numbering)
heavy: B2 heavy with D239G, V325M
light: B2 light
notes: copies: 2 + 2
- relative binding activity [1]: 104 relative (IL6R-BF648/IL6R-L = 100)
- relative binding activity [2]: 272 relative (IL6R-BF648/IL6R-L = 100)
- relative binding activity [3]: 224 relative (IL6R-BF648/IL6R-L = 100)

The remaining lines, values ahead:

- relative binding activity [1]: 39 relative (IL6R-BF648/IL6R-L = 100)
- relative binding activity [2]: 705 relative (IL6R-BF648/IL6R-L = 100)
- relative binding activity [3]: 621 relative (IL6R-BF648/IL6R-L = 100)
- relative binding activity [4]: 221 relative (IL6R-BF648/IL6R-L = 100)
B1: IL6R-BP151/IL6R-L (antibody, human IgG1, name in EU numbering)
heavy: B2 heavy with L236Y, K328A, K332R
light: B2 light
notes: the list runs over r36 and r37; copies: 2 + 2

- relative binding activity [1]: 102 relative (IL6R-BF648/IL6R-L = 100)
- relative binding activity [2]: 201 relative (IL6R-BF648/IL6R-L = 100)
- relative binding activity [3]: 128 relative (IL6R-BF648/IL6R-L = 100)
- relative binding activity [5]: 147 relative (IL6R-BF648/IL6R-L = 100)
B3: IL6R-BP176/IL6R-L (antibody, human IgG1, name in EU numbering)
heavy: B2 heavy with D239G, K328D
light: B2 light
notes: copies: 2 + 2

- relative binding activity [2]: 445 relative (IL6R-BF648/IL6R-L = 100)
- relative binding activity [3]: 203 relative (IL6R-BF648/IL6R-L = 100)
- relative binding activity [5]: 156 relative (IL6R-BF648/IL6R-L = 100)
B5: IL6R-BP146/IL6R-L (antibody, human IgG1, name in EU numbering)
heavy: B2 heavy with D235E, L236Y, K328A, K332A
light: B2 light
notes: copies: 2 + 2

- relative binding activity [1]: 108 relative (IL6R-BF648/IL6R-L = 100)
- relative binding activity [2]: 362 relative (IL6R-BF648/IL6R-L = 100)
- relative binding activity [3]: 150 relative (IL6R-BF648/IL6R-L = 100)
- relative binding activity [4]: 122 relative (IL6R-BF648/IL6R-L = 100)
B6: IL6R-BP181/IL6R-L (antibody, human IgG1, name in EU numbering)
heavy: B2 heavy with D239G, P273G, K328A
light: B2 light
notes: the list runs over r48 and r49; copies: 2 + 2
